The target in the assay is HLA-A*02 (human). Nature of the assay: UV-ligand exchange, anti-b2m ELISA; grade: exchange yield >=50%. In general terms: An ELISA detects its analyte on a solid surface through an enzyme-linked reagent.

RLAAFYSQV gave a peptide exchange yield of 50 to 75%.
For the molecule SLWSVARGV, the peptide exchange yield lay within 50 to 75%.
To SICNGVPMV belongs 50 to 75%.
To YLDKNLTVSV belongs 50 to 75%; to NLASFIEQVAV, 50 to 75%.
For RMLIKLLEV the value was 50 to 75%; for LLIDDEYKV, 50 to 75%.
Molecule QLTPVLVSV had a peptide exchange yield of 50 to 75%.
To TLYALSHAV belongs 50 to 75%.
For ALSSKPAEV the value was 50 to 75%.
To RILPKVLEV belongs 50 to 75%; to RLFEENDVNL, 50 to 75%; to RLFPDGIVTV, 50 to 75%.
In turn, TVMDIDTSGTFNV gave a peptide exchange yield of 50 to 75%.
For ALLEMDARL the value was 50 to 75%; for YLWDLDHGFAGV, 50 to 75%.
With ALLGKIEKV, the peptide exchange yield was 50 to 75%.
For LLHEENFSV the value was 50 to 75%.
To ALLNQHYQV belongs 50 to 75%; to GLAPGGLAVV, 50 to 75%.
To HLAKVTAEV belongs 50 to 75%.
Take SMGDHLWVA: the peptide exchange yield lay in the range of 50 to 75%.
In the case of KLTDHLKYV, the peptide exchange yield was 50 to 75%.
To VLSQVYSKV belongs 50 to 75%; to RLPDIPLRQV, 50 to 75%; to RMSDVVKGV, 50 to 75%.
To QLLPNLRAV belongs 50 to 75%; to KLSEAVTSV, 50 to 75%.
To KLYDLELIV belongs 50 to 75%; to KLDNNLDSV, 50 to 75%; to TLLDSPIKV, 50 to 75%.
Consider SLLSPEHLQYL, for which the peptide exchange yield fell in the range of 50 to 75%.
Molecule YLITGNLEKL had a peptide exchange yield of 50 to 75%.
SLWEGGVRGV showed a peptide exchange yield of 50 to 75%.
In turn, VVLDDKDYFL registered a peptide exchange yield of 50 to 75%.
As for RLPPDTLLQQV, the peptide exchange yield fell in the range of 50 to 75%.
In turn, SILDIVTKV displayed a peptide exchange yield of 50 to 75%.
To SVWFGPKEV belongs 50 to 75%.
With YAFPKSITV, the peptide exchange yield lay in the range of 50 to 75%.
TLAAIIHGA had a peptide exchange yield of 50 to 75%.
To SQADVIPAV belongs 50 to 75%; to RLLDEQFAV, 50 to 75%; to LLADIGGDPFAA, 50 to 75%.
NVFDGLVRV returned a peptide exchange yield of 50 to 75%.
To RLTESVLYL belongs 50 to 75%.
Turning to RLLDVLAPLV, the peptide exchange yield fell in the range of 50 to 75%.
ALHEEVVGV came in with a peptide exchange yield of 50 to 75%.
For TLLKKISEA the value was 50 to 75%; for YLDDEKNWGL, 50 to 75%.

The values are drawn from patent publication US20160250307A1 (IMMATICS BIOTECHNOLOGIES, published 2016).
